Results taken from the supplement of paper PMC9732359.
± gives the uncertainty stated by the source.

Test: protein stability index of a GFP-peptide fusion (yeast GPS) (PSI 1-4); higher = more stable; sorted into four equal gates, so the index is relative within each strain
Conditions: san1∆
How it was run: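 Plasmids isolated from each sorting gate were PCR-amplified and Illumina-sequenced, and barcodes assigned the reads to strains. The gates, four of equal size, were set by GFP/Cherry fluorescence ratio on mid-log cultures in leucine-free medium. These cultures were yeast carrying a pooled library of tiled 17-residue yeast protein peptides fused downstream of GFP on a plasmid that also expresses Cherry. The protein stability index is the sum of every gate's read frequency times its gate number.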
QKKARTILQHLSEAWRC [PRP8] showed a protein stability index of 2.28 ± 0.12.
Work on QKLFVQVSNFAPQVYII [GAL11] yielded a protein stability index of 2.86 ± 0.065.

Same assay, conditions: ubr1∆
PSAGPHKLRESLPLIVF [RPS4A] showed a protein stability index of 2.05 ± 0.046.
PSKDSFTKYKPARSSSL [YAR002W/NUP60] gave a protein stability index of 2.77 ± 0.04.
Sequence PSKSQTNFKEEITDASL [YML103C/NUP188] has a protein stability index of 2.92 ± 0.18.
For PSLYRLLNILITYGIIK [SRB8], the protein stability index was 1.04 ± 0.044.
In the case of PSPPNVIITDGTLLRED [YDL088C/ASM4], the protein stability index is reported as 2.91 ± 0.034.
In the case of PSRKDCMEVASAFMKFS [BRR2], the protein stability index is reported as 2.68 ± 0.055.
Sequence PSTDKNEKKTETNAKPF [YLR335W/NUP2] has a protein stability index of 3.33 ± 0.096.
For PSTRSNFILEVFGTIIP [YJL039C/NUP192], the protein stability index was 1.35 ± 0.072.
Work on PSTSITLAERQQLAYDL [RPN9] yielded a protein stability index of 2.94 ± 0.033.
Sequence PSTTLFNFGGKSDTVTS [YOR098C/NUP1] has a protein stability index of 2.92 ± 0.059.
Sequence PTEMEPDLDTECFISMQ [SWI1] has a protein stability index of 3.26 ± 0.058.
For PTFTFGSSALADNKEDV [YLR335W/NUP2], the protein stability index was 3.09 ± 0.033.
Sequence PTFVEFILIPLYKIFSY [SNU114] has a protein stability index of 1.63 ± 0.044.
Work on PTIEYVQCPTVIKLAKY [ARP9] yielded a protein stability index of 1.98 ± 0.032.
PTPAASAPAPAAAAPAP [FAS2] gave a protein stability index of 3.1 ± 0.079.
PTVHNSTAAAPIAAPKK [PGD1] showed a protein stability index of 3.072 ± 0.029.
In the case of PVDHPHGGGNHQHIGKA [RPL2A], the protein stability index is reported as 3.22 ± 0.071.
For PVENIWADIFAKALDGQ [RPP1A], the protein stability index was 2.62 ± 0.1.
Work on PVIDYELKEITSLPDWC [BRR2] yielded a protein stability index of 3.05 ± 0.048.
Sequence PVKALNECIASTSNALK [SNF12] has a protein stability index of 2.81 ± 0.051.
Work on PVKLDENSANSTVASAL [SIR4] yielded a protein stability index of 2.9 ± 0.074.
In the case of PVLDNPFTNEAHMWPRV [POP3], the protein stability index is reported as 3.27 ± 0.06.
Work on PVLFNRQPSLHKMSMMA [RPO21] yielded a protein stability index of 2.23 ± 0.16.
With PVRPVRVRHEDVETVKR [RPC53] the protein stability index was 3.04 ± 0.037.
Sequence PYAIVKGKARLGTLVNQ [RPL8A] has a protein stability index of 2.73 ± 0.073.
Work on PYFDYIFNDILAHVDQI [YJL039C/NUP192] yielded a protein stability index of 1.94 ± 0.054.
PYQHPPNIFPNLTYYNE [ITC1] gave a protein stability index of 2.76 ± 0.039.
Sequence PYTGWVDSKTKEPVDDK [FAS2] has a protein stability index of 3.17 ± 0.053.
In the case of PYYKYLCEEYLVNNGQS [RPN7], the protein stability index is reported as 1.77 ± 0.067.
In the case of QAHEIVIPSYSKWFNLE [SWI3], the protein stability index is reported as 1.66 ± 0.038.
In the case of QAHTLYNSVRPFGVSTI [PRE10], the protein stability index is reported as 2.6 ± 0.042.
For QAIPKFQMNCYAKEDAF [RPN2], the protein stability index was 2.57 ± 0.036.
Work on QALDISKKGKPTVNKKP [SRP72] yielded a protein stability index of 2.3 ± 0.14.
Sequence QALEKIGIVEISPKGGR [RPS19A] has a protein stability index of 2.56 ± 0.15.
With QAMGVFLTNYNVRMDTM [RPB2] the protein stability index was 3.5 ± 0.14.
With QAPFSTSTKDKNSSTSN [MED1] the protein stability index was 3.09 ± 0.048.
QAQAQAQAQAQAQAQAQ [GAL11] showed a protein stability index of 3.04 ± 0.033.
QAQQAQQAQARLQQGRR [SNF2] showed a protein stability index of 3.02 ± 0.061.
With QDIKKAKRVENFNSSAP [DSN1] the protein stability index was 3.42 ± 0.06.
With QDKEGIPPDQQRLIFAG [RPS31] the protein stability index was 3.15 ± 0.033.
QDKEKIDNLKDTLKENA [ITC1] showed a protein stability index of 3.09 ± 0.04.
For QDLNQRFQDPYVAIVVD [RRI1], the protein stability index was 2.71 ± 0.12.
QDRQQLLPLVVSNISCL [ECM29] showed a protein stability index of 1.29 ± 0.034.
With QDSILIIYPRSQTTLVQ [ARP9] the protein stability index was 2.46 ± 0.067.
Work on QDVDFYKNLDRGFSKDL [RRP6] yielded a protein stability index of 3.23 ± 0.097.
QEAVNSLKGYKIENSVQ [CSI1] gave a protein stability index of 3.39 ± 0.073.
Work on QEESFSLNLGIGIVEIA [SRB8] yielded a protein stability index of 1.89 ± 0.094.
QEGMNECPGHFGHIDLA [RPO21] showed a protein stability index of 3.29 ± 0.09.
QELISKAFTNWNKRDFM [ISW2] gave a protein stability index of 2.89 ± 0.25.
With QELKADSPFSLICQNNL [SRP72] the protein stability index was 2.85 ± 0.049.
For QESSSLRLLEVTDDDRL [POP8], the protein stability index was 1.65 ± 0.068.
Sequence QEYAIEMKIGSIESKLE [SMC1] has a protein stability index of 2.94 ± 0.093.
With QFGNACISLSGVPNYLV [SSN2] the protein stability index was 2.21 ± 0.069.
QFKKLTHAQRTGLSQIP [PRP8] gave a protein stability index of 2.53 ± 0.12.
Sequence QFLYEKHYKNIPRNSPL [RPC82] has a protein stability index of 2.08 ± 0.035.
In the case of QFSESTHNDIDSTAVAL [YJL039C/NUP192], the protein stability index is reported as 3.16 ± 0.071.
Work on QFSQLNDPNAAVNMTQN [MED6] yielded a protein stability index of 2.62 ± 0.06.
For QFTRFFLLVPSKQVQVS [ECM29], the protein stability index was 1.21 ± 0.072.
In the case of QFVSKLVDNLNAEVVAG [BRR2], the protein stability index is reported as 2.19 ± 0.041.
QGAKTYLERTLDTFIKI [PRE5] gave a protein stability index of 3.21 ± 0.058.
In the case of QGIIYAKVNRPAKIVNF [RPN5], the protein stability index is reported as 2.4 ± 0.16.
In the case of QGNPKKRPGKLSDYIPG [CYT1], the protein stability index is reported as 3.17 ± 0.032.
Work on QGTGKKTASLGNSKDDL [ISW2] yielded a protein stability index of 3.42 ± 0.14.
For QHDKMVDKIFEKVNNNA [SWI1], the protein stability index was 2.99 ± 0.041.
QHEQQKQQEQLEQQKQP [YMR153W/NUP53] gave a protein stability index of 3.15 ± 0.046.
With QHTTESDNISRKYEISF [RPB2] the protein stability index was 3.2 ± 0.11.
QHYKNNSISSQPASYHS [SSN2] gave a protein stability index of 2.78 ± 0.057.
In the case of QIAKFVVGLGERVSPTD [RPT1], the protein stability index is reported as 1.38 ± 0.051.
QIIFGVVEKKTVGSSNG [RPO21] gave a protein stability index of 1.6 ± 0.066.
Sequence QIRDVMERFSVLCNSNI [RRP6] has a protein stability index of 2.38 ± 0.084.
For QITPTVPHSHPSDMVIP [SNF12], the protein stability index was 2.59 ± 0.034.
In the case of QIVPYIEKLTDGHLRAP [BRR2], the protein stability index is reported as 3.15 ± 0.051.
QKKARTILQHLSEAWRC [PRP8] gave a protein stability index of 2.55 ± 0.16.
QKLFVQVSNFAPQVYII [GAL11] gave a protein stability index of 2.32 ± 0.049.
